B1: FBSP (ABCC1 promoter) (dsDNA)
DNA 1: GTACAGTCAC
DNA 2: GTGACTGTAC
B2: FBS (ABCC2 promoter) (dsDNA)
DNA 1: CTGTCCTGTAA
DNA 2: TTACAGGACAG

Key:
Conditions in all cases: protein: recombinant; tags: N-terminal His; label: 5'-biotin
[1] = target: T1, FTZ-F1 T288A(-P) (non-phosphorylated form) (Plutella xylostella, UniProt A0ABQ7R810 1-557, T288A); assay: EMSA; 20 fmol probe; EMSA: 25 °C, 30 min, 20 fmol biotin probe, LightShift Chemiluminescent EMSA Kit; buffer, salt and pH not stated
[2] = target: T2, FTZ-F1 T288D(P) (phosphomimic) (Plutella xylostella, UniProt A0ABQ7R810 1-557, T288D); assay: EMSA; 20 fmol probe; cold competitor 100 and 500 fmol; EMSA: 25 °C, 30 min, 20 fmol biotin probe, LightShift Chemiluminescent EMSA Kit; buffer, salt and pH not stated
[3] = target: T2, FTZ-F1 T288D(P) (phosphomimic); assay: EMSA; 20 fmol probe; EMSA: 25 °C, 30 min, 20 fmol biotin probe, LightShift Chemiluminescent EMSA Kit; buffer, salt and pH not stated
[4] = target: T1, FTZ-F1 T288A(-P) (non-phosphorylated …); assay: EMSA; 20 fmol probe; cold competitor 100 and 500 fmol; EMSA: 25 °C, 30 min, 20 fmol biotin probe, LightShift Chemiluminescent EMSA Kit; buffer, salt and pH not stated

T2 sequence (A0ABQ7R810 entry or part of it T288D | T288D T288D): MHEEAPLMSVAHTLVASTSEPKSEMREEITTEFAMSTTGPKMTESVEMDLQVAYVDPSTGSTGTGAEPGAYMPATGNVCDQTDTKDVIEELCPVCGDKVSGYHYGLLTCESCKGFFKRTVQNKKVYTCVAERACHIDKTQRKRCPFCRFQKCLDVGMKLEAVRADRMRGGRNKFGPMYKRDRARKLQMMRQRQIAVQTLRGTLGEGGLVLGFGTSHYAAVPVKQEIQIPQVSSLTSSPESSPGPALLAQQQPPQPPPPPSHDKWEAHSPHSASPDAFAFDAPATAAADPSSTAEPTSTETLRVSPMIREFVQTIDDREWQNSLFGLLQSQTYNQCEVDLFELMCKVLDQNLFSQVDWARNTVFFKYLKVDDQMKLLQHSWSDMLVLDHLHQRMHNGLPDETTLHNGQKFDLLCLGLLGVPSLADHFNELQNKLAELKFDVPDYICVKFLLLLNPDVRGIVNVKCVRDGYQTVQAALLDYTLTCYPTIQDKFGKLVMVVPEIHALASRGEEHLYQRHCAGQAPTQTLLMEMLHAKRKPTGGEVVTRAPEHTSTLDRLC
T1 sequence (A0ABQ7R810 entry or part of it T288A | T288A T288A): as the sequence (A0ABQ7R810 entry or part of it T288D | T288D T288D) above, with D288A counted along it

Binder	binding result [1]	binding result [2]	binding result [3]	binding result [4]
B1	no binding	binds		
B2			no binding	binds

From PMC9555685, “A single transcription factor facilitates an insect host combating Bacillus thuringiensis infection while maintaining fitness”
